Here are results for 39 variants from the RNAGym collection of RNA variant scans (doi:10.7554/elife.90254).

B1: LINE1-full (parent)
chain: UACGUAGGUGGUUUUCCCCUGAUAGUGCUAAGGGGGCCUGGAAGUUUGGACUGGGCAGAGCUCAACACAGCGUGGCAAAGUGGCUGUGGCUAGACUGCCUCUCUGGAUUCCUCGUCACUCAGCAGGGCAUCUCUGAGAGAAAUGCC

Variants of B1 are the subject of the series. The series can be described thus: self-cleavage, relative activity (ratio to wild type); higher = more cleavage; in vitro, sequencing; the parent is a self-cleaving ribozyme.
In the case of UACGUAGGUGGUUUUCCCCUGAUAGAGCUAAGGUGGCCUGGAAGUUUGGACUGGGCAGAGCUCAACACAGCGUGGCAAAGUGGCUGUGGCUAGACUGCCUCUCUGGAUUCCUCGUCACUCAGCAGGGCAUCUCUGAGAGAAAUGCC [U26A G34U], the self-cleavage turned out to be 0.83.

On to UACGUAGGUGGUUUUCCCCUGAUAGAGCUAAGUGGGCCUGGAAGUUUGGACUGGGCAGAGCUCAACACAGCGUGGCAAAGUGGCUGUGGCUAGACUGCCUCUCUGGAUUCCUCGUCACUCAGCAGGGCAUCUCUGAGAGAAAUGCC [U26A G33U], for which the self-cleavage came out at 0.62.

For the variant UACGUAGGUGGUUUUCCCCUGAUAGAGCUAAGAGGGCCUGGAAGUUUGGACUGGGCAGAGCUCAACACAGCGUGGCAAAGUGGCUGUGGCUAGACUGCCUCUCUGGAUUCCUCGUCACUCAGCAGGGCAUCUCUGAGAGAAAUGCC [U26A G33A], the self-cleavage was 0.67. Regarding UACGUAGGUGGUUUUCCCCUGAUAGAGCCAAGGGGGCCUGGAAGUUUGGACUGGGCAGAGCUCAACACAGCGUGGCAAAGUGGCUGUGGCUAGACUGCCUCUCUGGAUUCCUCGUCACUCAGCAGGGCAUCUCUGAGAGAAAUGCC [U26A U29C], the self-cleavage is 1.44. For the variant UACGUAGGUGGUUUUCCCCUGAUAGAGCAAAGGGGGCCUGGAAGUUUGGACUGGGCAGAGCUCAACACAGCGUGGCAAAGUGGCUGUGGCUAGACUGCCUCUCUGGAUUCCUCGUCACUCAGCAGGGCAUCUCUGAGAGAAAUGCC [U26A U29A], the self-cleavage was determined as 1.12.

As for UACGUAGGUGGUUUUCCCCUGAUAGAGCUAAGGGGGCCUGGAAGUUUGGACUGGGCAGAGCUCAACACAGCGUGGCAAAGUGGCUGUGGCUAGAUUGCCUCUCUGGAUUCCUCGUCACUCAGCAGGGCAUCUCUGAGAGAAAUGCC [U26A C95U], the self-cleavage turned out to be 0.17. To UACGUAGGUGGUUUUCCCCUGAUAGAGCUAAGGGGGCCUUGAAGUUUGGACUGGGCAGAGCUCAACACAGCGUGGCAAAGUGGCUGUGGCUAGACUGCCUCUCUGGAUUCCUCGUCACUCAGCAGGGCAUCUCUGAGAGAAAUGCC [U26A G40U] belongs 0.37; to UACGUAGGUGGUUUUCCCCUGAUAGAGCUAAGGGGGCCUGGAAGUUUGGACUGGGCAGAGCUCAACACAGCGUGGCAAAGUGGCUGUGGCUAGACUGCCUCUCUGGAUUCCUCGUCGCUCAGCAGGGCAUCUCUGAGAGAAAUGCC [U26A A117G], 1.11. To UACGUAGGUGGUUUUCCCCUGAUAGAGCUAAGGGGGCCUGGAAGUUUGGACUGGGCAGAGCUCAACACAGCGUGGCAAAGUGGCUGUGGCUAGACUGCCUCUUUGGAUUCCUCGUCACUCAGCAGGGCAUCUCUGAGAGAAAUGCC [U26A C103U] belongs 0.98; to UACGUAGGUGGUUUUCCCCUGAUAGAGCUAAGGGGGCCUGGAAGUUUGGACUGGGCAGAGCUCAACACAGCGUGGAAAAGUGGCUGUGGCUAGACUGCCUCUCUGGAUUCCUCGUCACUCAGCAGGGCAUCUCUGAGAGAAAUGCC [U26A C76A], 1.51; to UACGUAGGUGGUUUUCCCCUGAUAGAGCUAAGGGGGCCUGGAAGUUUGGACUGGGCAGAGCUCAACACAGCGUGGCAAAGUAGCUGUGGCUAGACUGCCUCUCUGGAUUCCUCGUCACUCAGCAGGGCAUCUCUGAGAGAAAUGCC [U26A G82A], 1.18. For the variant UACGUAGGUGGUUUUCCCCUGAUAGAGCUAAGGGGGCCUGGAAGUUUGGACUGGGCAGAGCUCAACACAGCGUGGCAAAGUGGCUGUGGCUAGACUGCCUCUCUGGAUUCCUCGUCACUCAGCCGGGCAUCUCUGAGAGAAAUGCC [U26A A124C], the self-cleavage was determined as 1.4. In the case of UACGUAGGUGGUUUUCCCCUGAUAGAGCUAAGGGGGCCUGGAAGUUUGGACUGGGCAGAGCUCAACACAGCGUGGCAAAGUGGCUGUGGCUAGACUGCUUCUCUGGAUUCCUCGUCACUCAGCAGGGCAUCUCUGAGAGAAAUGCC [U26A C99U], the self-cleavage was determined as 0.37. To UACGUAGGUGGUUUUCCCCUGAUAGAGCUAAGGGGGCCUGGAAGUUUGGACUGGGCAGAGCUCAACACAGCGUGGCAAAGUGGCUGUGGCUAGACUGCAUCUCUGGAUUCCUCGUCACUCAGCAGGGCAUCUCUGAGAGAAAUGCC [U26A C99A] belongs 0.09; to UACGUAGGUGGUUUUCCCCUGAUAGAGCUAAGGGGGCCUGGAAGUUUGGACUGGGCAGAGCUCAACACAGCGUGGCAAAGUGGCUGUGGCUAGACUGCCUCUCUGGAUUCCUCGUCACUCAGCAGGGCAUCUCUGAGAGAGAUGCC [U26A A141G], 1.11. To UACGUAGGUGGUUUUCCCCUGAUAGAGCUAAGGGGGCCUGGAAGUUUGGACUGGGCAGAGCUCAACACAGCGUGGCAAAGUGGCUGUGGCUAGACUGCCUCUCUGGAUUCCUCGUUACUCAGCAGGGCAUCUCUGAGAGAAAUGCC [U26A C116U] belongs 0.99.

For the variant UACGUAGGUGGUUUUCCCCUGAUAGAGCUAAGGGGGCCUGGAAGUUUGGACUGGGCAGAGCUCAACACAGCGUGGCAAAGUGGCUGUGGCUAGACUGCCUCUCUGGAUUCCUCGUCACUCAGCAGGGCAUCUCUGAGUGAAAUGCC [U26A A138U], the self-cleavage was 0.78. To UACGUAGGUGGUUUUCCCCUGAUAGAGCUAAGGGGGCCUGGAAGUUUGGACUGGGCAGAGCUCAACACAGCGUGGCAAAGUGGCUGUGGCUAGACUGCCUCUCUGGAUUCCUCGUCACUCAGCAGGGCAUCUCUGAGGGAAAUGCC [U26A A138G] belongs 1.25; to UACGUAGGUGGUUUUCCCCUGAUAGAGCUAAGGGGGCCUGGAAGUUUGGACUGGGCAGAGCUCAACACAGCGUGGCAAAGUGGCUGUGGCUAGACUGCCUCUCUGGAUUCCUCGUCACUCUGCAGGGCAUCUCUGAGAGAAAUGCC [U26A A121U], 1.11; to UACGUAGGUGGUUUUCCCCUGAUAGAGCUAAGGGGGCCUGGAAGUUUGGACUGGGCAGAGCUCAACACAGCGUGGCAAAGUGGCUGUGGCUAGACUGCCUCUCUGGAUUCCUCGUCACUCGGCAGGGCAUCUCUGAGAGAAAUGCC [U26A A121G], 1.46.

Take UACGUAGGUGGUUUUCCCCUGAUAGAGCUAAGGGGGCCUGGAAGUUUGGACUGGGCAGAGCUCAACACAGCGUGGCAAAGUGGCUGUGGCUAGACUGCCUCUCUGGAUUCCUCGUCACUCAGCAGGGCAUCUCUGUGAGAAAUGCC [U26A A136U]: the self-cleavage was determined as 1.2. To UACGUAGGUGGUUUUCCCCUGAUAGAGCUAAGGGGGCCUGGAAGUUUGGACUGGGCAGAGCUCAACACAGCGUGGCAAAUUGGCUGUGGCUAGACUGCCUCUCUGGAUUCCUCGUCACUCAGCAGGGCAUCUCUGAGAGAAAUGCC [U26A G80U] belongs 1.21; to UACGUAGGUGGUUUUCCCCUGAUAGAGCUAAGGGGGCCUGGAAGUUUGGACUGGGCAUAGCUCAACACAGCGUGGCAAAGUGGCUGUGGCUAGACUGCCUCUCUGGAUUCCUCGUCACUCAGCAGGGCAUCUCUGAGAGAAAUGCC [U26A G58U], 0.05. To UACGUAGGUGGUUUUCCCCUGAUAGAGCUAAGGGGGCCUGGAAGUUUGGACUGGGCAGAGCUCAACACAGCUUGGCAAAGUGGCUGUGGCUAGACUGCCUCUCUGGAUUCCUCGUCACUCAGCAGGGCAUCUCUGAGAGAAAUGCC [U26A G72U] belongs 0.77; to UACGUAGGUGGUUUUCCCCUGAUAGAGCUAAGGGGGCCUGGAAGUUUGGACUGGGCAGAGCUCAACACAGCGUGGCAAAGUGGCUGUGGCUAGACUGCCUCUCUGGAUUCCUCGUCACUAAGCAGGGCAUCUCUGAGAGAAAUGCC [U26A C120A], 1.12. As for UACGUAGGUGGUUUUCCCCUGAUAGAGCUAAGGGGGCAUGGAAGUUUGGACUGGGCAGAGCUCAACACAGCGUGGCAAAGUGGCUGUGGCUAGACUGCCUCUCUGGAUUCCUCGUCACUCAGCAGGGCAUCUCUGAGAGAAAUGCC [U26A C38A], the self-cleavage stood at 0.73. For UACGUAGGUGGUUUUCCCCUGAUAGAGCUAAGGGGGCCUGGAAGUUUGGACUGGGCAGAGCUCAACACAGCGUGGCAAAGUGGCUGUGGCUAGACUGCCUCUCUGGAUUCCUCGUCACUCAGCAGGGUAUCUCUGAGAGAAAUGCC [U26A C128U] the value was 0.72; for UACGUAGGUGGUUUUCCCCUGAUAGAGCUAAGGGGGCCUGGAAGUUUGGACUGGGCAGAGCUCAACACAGCGUGGCAAAGUGGCUGUGGCUAGACUGCCUCUCUGGAUUCCUCGUCACUCAGCAGGGCAUCUCUGAGAGGAAUGCC [U26A A140G], 1.02; for UACGUAGGUGGUUUUCCCCUGAUAGAGCUAAGGGGGCCUGGAAGUUUGGACUGGGCAGAGCUCAACACAGCGUGGCAAAGUGGCUGUGGCUAGACUGCCUCUCUUGAUUCCUCGUCACUCAGCAGGGCAUCUCUGAGAGAAAUGCC [U26A G105U], 0.57. For UACGUAGGUGGUUUUCCCCUGAUAGAGCUAAGGGGGCCUGGAAGUUUGGACUGGGCAGAGCUCAACACAGCGUUGCAAAGUGGCUGUGGCUAGACUGCCUCUCUGGAUUCCUCGUCACUCAGCAGGGCAUCUCUGAGAGAAAUGCC [U26A G74U] the value was 1.94; for UACGUAGGUGGUUUUCCCCUGAUAGAGCUAAGGGGGCCUGGAAGUUUGGACUGGGCAGAGCUCAACACAGCGUGGCAAAGUGGCUGUGGCUAGACUGCCUCUCUGGAUUCCUCGUCACUCAGCAGCGCAUCUCUGAGAGAAAUGCC [U26A G126C], 1.42; for UACGUAGGUGGUUUUCCCCUGAUAGAGCUAAGGGGGCCUGGAAGUUUGGACUGGGCAGAGCUCAACACAGCGUGGCAAAGUGGCUGUGGAUAGACUGCCUCUCUGGAUUCCUCGUCACUCAGCAGGGCAUCUCUGAGAGAAAUGCC [U26A C90A], 0.04. As to UACGUAGGUGGUUUUCCCCUGAUAGAGCUAAGGGGGCCUGGAAGUUUGGACUGGGCAGAGCUCAAAACAGCGUGGCAAAGUGGCUGUGGCUAGACUGCCUCUCUGGAUUCCUCGUCACUCAGCAGGGCAUCUCUGAGAGAAAUGCC [U26A C66A], the self-cleavage came to 0.05.

Take UACGUAGGUGGUUUUCCCCUGAUAGAGCUAAGGGGGCCUGGAAGUUUGGACUGGGCAGAGCUCAACACAGCGUGGCAAAGUGGCUGUGGCUAGACUGCCUCUCUGGAUUACUCGUCACUCAGCAGGGCAUCUCUGAGAGAAAUGCC [U26A C110A]: the self-cleavage turned out to be 0.95. To UACGUAGGUGGUUUUCCCCUGAUAGAGCUAAGGGGGCCUGGAAGUUUGGACUGGGCAGAGCUCAACACAGCGUGGCAAAGUGGCUGUGGCUAGACUGCCUCUCUGGAUUCCUCGUCACUCAGCAGGGCAUCUCUGAGAGAAAUACC [U26A G144A] belongs 1.03; to UACGUAGGUGGUUUUCCCCUGAUAGAGCUAAGGGGGCCUGGAAGUUUGGACUGGGCAGAGCUCAACACAGCGUGGCAAAGUGGCUGUGGCUAGACUGCCUCUCUGGAUUCCUCAUCACUCAGCAGGGCAUCUCUGAGAGAAAUGCC [U26A G114A], 0.67. To UACGUAGGUGGUUUUCCCCUGAUAGAGCUAAGGGGGCCUGGAAGUUUGGACUGGGCAGAGCUCAACACAGCGUGGCAAAGUGGCUGUGGCUAGACUGCCUCUCUGGAUUCCUCGUCACUCAGCAGGGCAUCUUUGAGAGAAAUGCC [U26A C133U] belongs 1.01; to UACGUAGGUGGUUUUCCCCUGAUAGAGCUAAGGGGGCCUGGAAGUUUGGACUGGGCAGAGCUCAACACAGCGUGGCAAAGUGGCUGUGGCUAGACUGCCUCUCUGGAUUCCUCGUCACUCAGCAGGGCAUCUCUGAGAGAAGUGCC [U26A A142G], 1.2. For the variant UACGUAGGUGGUUUUCCCCUGAUAGAGCUAAGGGGGCCUGGAAGUUUGGACUGGGCAGAGCUCAACACAGCGUGGCAAAGUGGCUGUAGCUAGACUGCCUCUCUGGAUUCCUCGUCACUCAGCAGGGCAUCUCUGAGAGAAAUGCC [U26A G88A], the self-cleavage amounted to 0.07.
